{"source": "paper PMC4694770", "about": "“Gene Regulatory Mechanisms Underlying the Spatial and Temporal Regulation of Target-Dependent Gene Expression in Drosophila Neurons”", "binders": {"B1": {"name": "BMP-RE probe (dsDNA)", "DNA 1": "GCCAGAGGCGCCACAATGTATCCCGTT", "DNA 2": "AACGGGATACATTGTGGCGCCTCTGGC"}, "B2": {"name": "MutMad BMP-RE competitor (dsDNA)", "DNA 1": "GCCAGATAGTAGACAATGTATCCCGTT", "DNA 2": "AACGGGATACATTGTCTACTATCTGGC"}, "B3": {"name": "DR1 Svp probe (dsDNA)", "DNA 1": "AGCTCTCAGGTCAGAGGTCAGAGAGCT", "DNA 2": "AGCTCTCTGACCTCTGACCTGAGAGCT"}}, "key": {"[1]": {"target": "T1, GST-MH1-Mad (GST-MadN) (Drosophila melanogaster, UniProt P42003 26-150)", "T1 sequence (P42003 26-150)": "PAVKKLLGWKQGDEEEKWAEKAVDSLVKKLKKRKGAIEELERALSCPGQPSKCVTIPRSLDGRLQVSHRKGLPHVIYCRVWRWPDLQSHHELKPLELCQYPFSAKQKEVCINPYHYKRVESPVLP", "experiment": "EMSA; 1 ug poly(dI-dC), 5 mM MgCl2; out-competed by unlabeled WT; Ap: 20 mM HEPES pH 7.8, 50 mM KCl, 10% glycerol, 0.25 mM EDTA, 0.1 mg/ml BSA, 1 mM DTT, 21 C; Mad: 25 mM Tris pH 7.5, 35 mM KCl, 80 mM NaCl, 5 mM MgCl2, 3.5 mM", "conditions": "protein: recombinant; tags: GST (pGEX6p1); label: IRDye 700"}, "[2]": {"target": "T1, GST-MH1-Mad (GST-MadN)", "experiment": "competition; vs labeled BMP-RE; Ap: 20 mM HEPES pH 7.8, 50 mM KCl, 10% glycerol, 0.25 mM EDTA, 0.1 mg/ml BSA, 1 mM DTT, 21 C; Mad: 25 mM Tris pH 7.5, 35 mM KCl, 80 mM NaCl, 5 mM MgCl2, 3.5 mM", "conditions": "protein: recombinant; tags: GST (pGEX6p1); label: unlabeled"}, "[3]": {"target": "T2, His::Svp (Drosophila melanogaster, UniProt P16375 1-543)", "T2 sequence": "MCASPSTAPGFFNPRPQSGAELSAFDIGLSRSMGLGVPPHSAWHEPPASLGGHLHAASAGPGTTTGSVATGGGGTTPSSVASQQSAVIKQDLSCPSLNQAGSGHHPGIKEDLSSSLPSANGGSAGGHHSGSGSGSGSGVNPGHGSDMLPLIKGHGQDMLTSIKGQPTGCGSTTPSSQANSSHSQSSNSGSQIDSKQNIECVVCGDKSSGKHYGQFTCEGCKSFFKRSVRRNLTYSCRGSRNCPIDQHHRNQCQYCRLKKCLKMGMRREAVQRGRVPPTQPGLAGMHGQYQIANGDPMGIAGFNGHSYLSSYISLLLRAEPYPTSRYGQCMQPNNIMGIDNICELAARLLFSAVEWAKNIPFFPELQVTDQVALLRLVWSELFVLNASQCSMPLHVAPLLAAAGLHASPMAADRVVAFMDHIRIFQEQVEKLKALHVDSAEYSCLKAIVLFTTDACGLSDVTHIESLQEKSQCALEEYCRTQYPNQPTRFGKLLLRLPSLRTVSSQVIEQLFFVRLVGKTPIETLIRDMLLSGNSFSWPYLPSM", "experiment": "EMSA; with or without poly(dI-dC); out-competed by WT at 20:1; Ap: 20 mM HEPES pH 7.8, 50 mM KCl, 10% glycerol, 0.25 mM EDTA, 0.1 mg/ml BSA, 1 mM DTT, 21 C; Mad: 25 mM Tris pH 7.5, 35 mM KCl, 80 mM NaCl, 5 mM MgCl2, 3.5 mM", "conditions": "protein: recombinant; tags: N-term His; GST removed with PreScission protease; chain copies: 2; label: IRDye 700"}}}
{"binder": "B1", "values": [{"measurement": "binding result", "setting": "[1]", "result": "binds"}]}
{"binder": "B2", "values": [{"measurement": "binding result", "setting": "[2]", "result": "no binding"}]}
{"binder": "B3", "values": [{"measurement": "binding result", "setting": "[3]", "result": "binds"}]}
